Measured values from PMC5539292, “Calcium Ion Induced Structural Changes Promote Dimerization of Secretagogin, Which Is Required for Its Insulin Secretory Function” (Scientific Reports, 2017).

Columns and labels:
[1] = target: recombinant human secretagogin (hSCGN) wild type (human) (UniProt O76038); assay: SEC; 450 µg protein on Superdex 200 HR 10/30 in PBS, 0.5 mL/min; samples pretreated with EGTA and DTT, then treated with Ca^2+ and H2O2
[2] = target: the molecule itself; assay: non-reducing SDS-PAGE of disulfide-linked dimers; recombinant protein incubated with 0 or 2 mM CaCl2 at R.T. for 15 min, then H2O2 at 37°C for 1 h; Coomassie blue staining

| Molecule | stoichiometry N [1] | binding result [2] |
| --- | --- | --- |
| recombinant human secretagogin (hSCGN) wild type (from UniProt O76038 1-276) (natural protein) | 2 |  |
| purified hSCGN ΔEF1 (deletion of 1-52 a.a.) (domain or fragment, human, UniProt O76038 53-276, looked up, human secretagogin (SCGN) without residues 1-52 (EF1); The methods describe ΔEF1 only as a pcDNA3.1 construct; also called ΔEF1 protein; recombinant ΔEF1; source: purified recombinant protein) TVMKANLHKVKQQFMTTQDASKDGRIRMKELAGMFLSEDENFLLLFRRENPLDSSVEFMQIWRKYDADSSGFISAAELRNFLRDLFLHHKKAISEAKLEEYTGTMMKIFDRNKDGRLDLNDLARILALQENFLLQFKMDACSTEERKRDFEKIFAYYDVSKTGALEGPEVDGFVKDMMELVQPSISGVDLDKFREILLRHCDVNKDGKIQKSELALCLGLKINP |  | binds |
